Results: US20120201811A1 (US Dept. of Health and Human Services, published 2012)
Like-named read-outs stand apart in the source and are kept apart here.

T1: HIV-1 Rev (clone BH10) (HIV-1 (isolate BH10), UniProt P04616 1-116)
T1 construct: mature; also called full-length Rev; recombinant HIV-1 Rev
T1 sequence: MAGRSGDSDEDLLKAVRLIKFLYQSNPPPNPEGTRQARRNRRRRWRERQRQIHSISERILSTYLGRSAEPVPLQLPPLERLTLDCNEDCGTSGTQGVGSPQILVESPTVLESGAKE

B1: Fab SJS-R1 (chimeric rabbit/human anti-Rev Fab) (Fab, V domains shown)
VH: QEQLVESGGRLVTPGTALTLTCKVSGFSLSGFWLNWVRQAPGKGLEWVGAIYRGSGSEWYASWAKGRFTISDTSTTVTLKLTSPTTEDTATYFCAADTTDNGYFTIWGPGTLVTVSS
VL: ELVMTQTPSSVSEPVGGTVTIKCQASQSISSWLSWYQQKPGQPPKLLIYDASNLASGVPSRFMGSGSGTEYTLTISGVQREDAATYYCLGGYPAASYRTAFGGGTELEIIR
notes: also called SJS-R1 Fab; Rev Fab SJS-R1
B2: Fab/Rev complex (1:1 complex of Fab SJS-R1 and HIV-1 Rev) (other)
light: ELVMTQTPSSVSEPVGGTVTIKCQASQSISSWLSWYQQKPGQPPKLLIYDASNLASGVPSRFMGSGSGTEYTLTISGVQREDAATYYCLGGYPAASYRTAFGGGTELEIIRTVAAPSVFIFPPSDEQLKSGTASVVCLLNNFYPREAKVQWKVDNALQSGNSQESVTEQDSKDSTYSLSSTLTLSKADYEKHKVYACEVTHQGLSSPVTKSFNRGEC
heavy: QEQLVESGGRLVTPGTALTLTCKVSGFSLSGFWLNWVRQAPGKGLEWVGAIYRGSGSEWYASWAKGRFTISDTSTTVTLKLTSPTTEDTATYFCAADTTDNGYFTIWGPGTLVTVSSASTKGPSVFPLAPSAKSTSGGTAALGCLVKDYFPEPVTVSWNSGALTSGVHTFPAVLQSSGLYSLSSVVTVPSSSLGTQTYICNVNHKPSNTKVDKKAEPKSCDKTRGHHHHHH
chain: T1 sequence
notes: mature; also called Fab/Rev immune complex
B3: scFv SJS-R1 (mature SJS-R1 scFv) (scFv)
scFv: AELVMTQTPSSVSEPVGGTVTIKCQASQSISSWLSWYQQKPGQPPKLLIYDASNLASGVPSRFMGSGSGTEYTLTISGVQREDAATYYCLGGYPAASYRTAFGGGTELEIIGGSSRSSSSGGGGSGGGGQEQLVESGGRLVTPGTALTLTCKVSGFSLSGFWLNWVRQAPGKGLEWVGAIYRGSGSEWYASWAKGRFTISDTSTTVTLKLTSPTTEDTATYFCAADTTDNGYFTIWGPGTLVTVSSHHHHHH
notes: also called anti-Rev scFv; Rev scFv

Key:
HIV-1 Rev (clone BH10) [1] = target: T1, HIV-1 Rev (clone BH10); test: SPR (Biacore X), Rev immobilized on CM5 chip, Fab as analyte, Kd=kd/ka
HIV-1 Rev (clone BH10) [2] = target: T1, HIV-1 Rev (clone BH10); test: densitometry of Coomassie-stained SDS-PAGE of the Ni-purified complex
HIV-1 Rev (clone BH10) [3] = target: T1, HIV-1 Rev (clone BH10)
HIV-1 Rev (clone BH10) [4] = target: T1, HIV-1 Rev (clone BH10); test: SPR (Biacore X), Rev immobilized on CM5 chip, Fab as analyte, 1:1 Langmuir global fit
[5] = target: the molecule itself; test: sedimentation equilibrium ultracentrifugation, gradient fitted as a monomer-dimer system (self-association of the Fab/Rev complex); self-association of the 1:1 Fab/Rev complex, monomer-dimer fit of sedimentation equilibrium

| Binder | Kd (HIV-1 Rev (clone BH10) [1]) | molar ratio in the purified complex (HIV-1 Rev (clone BH10) [2]) | koff (HIV-1 Rev (clone BH10) [3]) | kon (HIV-1 Rev (clone BH10) [3]) | koff (HIV-1 Rev (clone BH10) [4]) | kon (HIV-1 Rev (clone BH10) [4]) | Kd [5] |
| --- | --- | --- | --- | --- | --- | --- | --- |
| B1 | ~0.04 nM | 0.9 mol Rev per mol Fab | 8.3e-06 s⁻¹ | 228000 M⁻¹ s⁻¹ | 8e-06 s⁻¹ | 220000 M⁻¹ s⁻¹ | – |
| B2 | – | – | – | – | – | – | ~100 µM |
| B3 | – | 0.87 mol Rev per mol scFv | – | – | – | – | – |
